Measured values: publication PMC6154639 (Molecules : A Journal of Synthetic Chemistry and Natural …, 2017)

What was measured:
PaF4′OMT = molecular target: T1, PaF4′OMT (Plagiochasma appendiculatum, UniProt A0A1X9Y2Y6); assay: HPLC product quantification, Michaelis-Menten fit; assay type: biochemical; conditions: substrate inhibition by luteolin; SAM as methyl donor; pH 7.5, 37 °C
T1 construct: pET32a fusion with N-terminal His6 tag kept (about 60 kDa on SDS-PAGE); E. coli BL21(DE3)
Description: HPLC product quantification, Michaelis-Menten fit on PaF4′OMT

purified protein = substrate: O=c1cc(-c2ccc(O)cc2)oc2cc(O)cc(O)c12; assay: purified protein; conditions: SAM as methyl donor, no Mg2+ needed, pH 7.5, 37 °C
[1] = substrate: O=c1cc(-c2ccc(O)c(O)c2)oc2cc(O)cc(O)c12; assay: HPLC product quantification, Michaelis-Menten fit; assay type: biochemical, Plagiochasma appendiculatum; conditions: SAM as methyl donor, no Mg2+ needed, pH 7.5, 37 °C

Molecule	Ki (PaF4′OMT) [µM]	Km (purified protein) [µM]	Vmax (purified protein) [µmol/min/mg]	kcat (purified protein) [s⁻¹]	Km [1] [µM]	Vmax [1] [µmol/min/mg]	kcat [1] [s⁻¹]
O=c1cc(-c2ccc(O)c(O)c2)oc2cc(O)cc(O)c12 [luteolin]	292.8 ± 69.03						
PaF4′OMT (Plagiochasma appendiculatum) (protein, pET32a fusion with N-terminal His6 tag kept (about 60 kDa on SDS-PAGE); E. coli BL21(DE3)) MAVSTNGKTSEGVSDVSRTKNITNGNGMDMSVSANVASIGSVSATPLSPEDKRDHVVAINFLLGWVQTWALKAVVTMRIPDIISKAPMDALTAREIISQIQCKNPSNAVPLLERLMRFMVCKGFFSESVNGENEIAYELNGVSKMYVTDHEMSVVEWVNVAFHRSGIPALTRMHEAITEDVCPWDQAHGMPIYAHNPKFPELGDFFHKAMIVHSNFLTKILAEEYEGFKDFKVLVDVGGSLGNNLALILRFHPHLRGINFDMPSVIAGAPSFPGVEHVGGNFYESVPSGDAIMLMAILHNNSDENCVKILRSVHAALPEDGKLIVAEYIMTNEADHNGERIRLLDMLMLVQFRGGEERTFEHHKTLYEAAGFRHYKLIKTSGPMDIIEVRK		31.0 ± 5.90	0.163	0.117	52.1 ± 10.54	0.111	0.08 ± 0.009
